Here are results for 19 molecules from patent publication US20240352133A1.

The target of the assay is Recombinant human his-tagged IGF 1R extracellular domain protein (human) (UniProt P08069). Briefly: SPR, captured antibody, pH 7.4. A general note: SPR reads the build-up and loss of mass on a sensor chip optically.

B1: VRDN-03089 (antibody, V domains shown)
VH: QVQLVESGGGVVQPGRSLRLSCAASGFTFSSYGMHWVRQAPGKGLEWVAIIWFDGSSTYYADSVRGRFTISRDNSKNTLYLQMNSLRAEDTAVYYCARELGRRYFDLWGRGTLVTVSS
VL: EIVLTQSPATLSLSPGERATLSCRASQSVSSSYLAWYQQKPGQAPRLLIYDASKRATGIPARFSGSGSGTDFTLTISSLEPEDFAVYYCQQRSKWPPWTFGQGTKVEIK
As for B1, the Kd amounted to 236 nM, the koff turned out to be 0.0173 s⁻¹ and the kon was 73300 M⁻¹ s⁻¹.

B2: VRDN-03132 (antibody, V domains shown)
VH: EVQLVESGGGVVQPGRSLRLSCAASGFTFSSYSMHWVRQAPGKGLEWVAVIWYDGSSKYYADSVKGRFTISRDNSKNTLYLQMNSLRAEDTAVYYCARELGRRYFDIWGQGTLVTVSS
VL: EIVMTQSPATLSVSPGERATLSCRASQGVSSNLAWYQQKPGQAPRLLIYGASTRATGIPARFSGSGSGTEFTLTISSLQSEDFAVYYCQQRSRWPPWTFGGGTKLEIK
For B2, the Kd worked out at 10.1 nM, the koff amounted to 0.004 s⁻¹ and the kon was 395000 M⁻¹ s⁻¹.

B3: VRDN-03125 (antibody, V domains shown)
VH: EVQLVESGGGVVQPGRSLRLSCAASGFTFDDYAMHWVRQAPGKGLEWVAVIWYDGSSKYYADSVKGRFTISRDNSKNTLYLQMNSLRAEDTAVYYCARELGRRYFDIWGQGTLVTVSS
VL: EIVMTQSPATLSVSPGERATLSCRASQGVSSYLAWYQQKPGQAPRLLIYGASTRATGIPARFSGSGSGTEFTLTISSLQSEDFAVYYCQQRSRWPPWTFGQGTKLEIK
In the case of B3, the Kd was 8.61 nM, the koff is 0.00292 s⁻¹ and the kon is 339000 M⁻¹ s⁻¹.

B4: VRDN-03118 (antibody, V domains shown)
VH: EVQLVESGGGVVQPGRSLRLSCAASGFTFSSYSMHWVRQAPGKGLEWVAIIWFDGSSKYYVDSVKSRFTISRDNSKNTLYLQMNSLRAEDTAVYYCARELGRRYFDIWGQGTLVTVSS
VL: EIVMTQSPATLSVSPGERATLSCRASQGVSSYLAWYQQKPGQAPRLLIYGASTRATGIPARFSGSGSGTEFTLTISSLQSEDFAVYYCQQRSRWPPWTFGQGTKLEIK
As for B4, the Kd came to 1.08 nM, the koff stood at 0.000107 s⁻¹ and the kon was found to be 98600 M⁻¹ s⁻¹.

B5: VRDN-03130 (antibody, V domains shown)
VH: EVQLVESGGGVVQPGRSLRLSCAASGFTFSSYSMHWVRQAPGKGLEWVAIIWFDGSSKYYVDSVKSRFTISRDNSKNTLYLQMNSLRAEDTAVYYCARELGRRYFDIWGQGTLVTVSS
VL: EIVMTQSPATLSVSPGERATLSCRASQGVSSNLAWYQQKPGQAPRLLIYGASTRATGIPARFSGSGSGTEFTLTISSLQSEDFAVYYCQQRSRWPPWTFGGGTKLEIK
B5: the Kd stood at 2.72 nM, the koff turned out to be 0.000275 s⁻¹ and the kon turned out to be 101000 M⁻¹ s⁻¹.

B6: VRDN-03122 (antibody, V domains shown)
VH: EVQLVESGGGVVQPGRSLRLSCAASGFTFSSYSMHWVRQAPGKGLEWVAVIWYDGSSKYYADSVKSRFTISRDNSKNTLYLQMNSLRAEDTAVYYCARELGRRYFDIWGQGTLVTVSS
VL: EIVMTQSPATLSVSPGERATLSCRASQGVSSYLAWYQQKPGQAPRLLIYGASTRATGIPARFSGSGSGTEFTLTISSLQSEDFAVYYCQQRSRWPPWTFGQGTKLEIK
Regarding B6, the Kd was determined as 4.09 nM, the koff came to 0.000455 s⁻¹ and the kon stood at 111000 M⁻¹ s⁻¹.

B7: VRDN-03128 (antibody, V domains shown)
VH: EVQLVESGGGVVQPGRSLRLSCAASGFTFSDYTMHWVRQAPGKGLEWVAIIWFDGSSKYYPGSVKGRFTISRDNSKNTLYLQMNSLRAEDTAVYYCARELGRRYFDIWGRGTLVTVSS
VL: EIVMTQSPATLSVSPGERATLSCRASQGVSSNLAWYQQKPGQAPRLLIYGASTRATGIPARFSGSGSGTEFTLTISSLQSEDFAVYYCQQRSRWPPWTFGGGTKLEIK
As to B7, the Kd came to 7.3 nM, the koff is 0.00241 s⁻¹ and the kon amounted to 331000 M⁻¹ s⁻¹.

B8: VRDN-03127 (antibody, V domains shown)
VH: EVQLVESGGGVVQPGRSLRLSCAASGFTFSDYTMHWVRQAPGKGLEWVAIIWFDGSSKYYADSVKSRFTISRDNSKNTLYLQMNSLRAEDTAVYYCARELGRRYFDIWGQGTLVTVSS
VL: EIVMTQSPATLSVSPGERATLSCRASQGVSSYLAWYQQKPGQAPRLLIYGASTRATGIPARFSGSGSGTEFTLTISSLQSEDFAVYYCQQRSRWPPWTFGQGTKLEIK
Turning to B8, the Kd was 0.573 nM, the koff worked out at 7.48e-05 s⁻¹ and the on-rate constant (kon) came to 131000 M⁻¹ s⁻¹.

B9: VRDN-03131 (antibody, V domains shown)
VH: EVQLVESGGGVVQPGRSLRLSCAASGFTFSSYSMHWVRQAPGKGLEWVAIIWFDGSEKYYVDSVKSRFTISRDNSKNTLYLQMNSLRAEDTAVYYCARELGRRYFDIWGQGTLVTVSS
VL: EIVMTQSPATLSVSPGERATLSCRASQGVSSNLAWYQQKPGQAPRLLIYGASTRATGIPARFSGSGSGTEFTLTISSLQSEDFAVYYCQQRSRWPPWTFGGGTKLEIK
As to B9, the Kd was 16.2 nM, the koff came to 0.00141 s⁻¹ and the kon worked out at 86900 M⁻¹ s⁻¹.

B10: VRDN-03123 (antibody, V domains shown)
VH: EVQLVESGGGVVQPGRSLRLSCAASGFTFDDYAMHWVRQAPGKGLEWVAIIWFDGSSKYYADSVKGRFTISRDNSKNTLYLQMNSLRAEDTAVYYCARELGRRYFDIWGQGTLVTVSS
VL: EIVMTQSPATLSVSPGERATLSCRASQGVSSYLAWYQQKPGQAPRLLIYGASTRATGIPARFSGSGSGTEFTLTISSLQSEDFAVYYCQQRSRWPPWTFGQGTKLEIK
In the case of B10, the Kd is 1.43 nM, the koff amounted to 9.19e-05 s⁻¹ and the kon was found to be 64200 M⁻¹ s⁻¹.

B11: VRDN-03121 (antibody, V domains shown)
VH: EVQLVESGGGVVQPGRSLRLSCAASGFTFSSYSMHWVRQAPGKGLEWVAVIWYDGSSKYYADSVKSRFTISRDNSKNTLYLQMNSLRAEDTAVYYCARELGRRYFDIWGRGTLVTVSS
VL: EIVMTQSPATLSVSPGERATLSCRASQGVSSYLAWYQQKPGQAPRLLIYGASTRATGIPARFSGSGSGTEFTLTISSLQSEDFAVYYCQQRSRWPPWTFGQGTKLEIK
In the case of B11, the Kd is 4.27 nM, the koff is 0.000486 s⁻¹ and the kon is 114000 M⁻¹ s⁻¹.

B12: VRDN-03129 (antibody, V domains shown)
VH: EVQLVESGGGVVQPGRSLRLSCAASGFTFSSYSMHWVRQAPGKGLEWVAIIWFDGSNKYYADSVKSRFTISRDNSKNTLYLQMNSLRAEDTAVYYCARELGRRYFDIWGQGTLVTVSS
VL: EIVMTQSPATLSVSPGERATLSCRASQGVSSNLAWYQQKPGQAPRLLIYGASTRATGIPARFSGSGSGTEFTLTISSLQSEDFAVYYCQQRSRWPPWTFGGGTKLEIK
In the case of B12, the Kd was 11 nM, the koff amounted to 0.00709 s⁻¹ and the kon turned out to be 646000 M⁻¹ s⁻¹.

B13: VRDN-03117 (antibody, V domains shown)
VH: EVQLVESGGGVVQPGRSLRLSCAASGFTFSSYSMHWVRQAPGKGLEWVAIIWFDGSNKYYADSVKSRFTISRDNSKNTLYLQMNSLRAEDTAVYYCARELGRRYFDIWGQGTLVTVSS
VL: EIVMTQSPATLSVSPGERATLSCRASQGVSSYLAWYQQKPGQAPRLLIYGASTRATGIPARFSGSGSGTEFTLTISSLQSEDFAVYYCQQRSRWPPWTFGQGTKLEIK
Regarding B13, the Kd turned out to be 8.1 nM, the koff turned out to be 0.00391 s⁻¹ and the kon worked out at 483000 M⁻¹ s⁻¹.

B14: VRDN-03120 (antibody, V domains shown)
VH: EVQLVESGGGVVQPGRSLRLSCAASGFTFSSYSMHWVRQAPGKGLEWVAVIWYDGSSKYYADSVKGRFTISRDNSKNTLYLQMNSLRAEDTAVYYCARELGRRYFDIWGQGTLVTVSS
VL: EIVMTQSPATLSVSPGERATLSCRASQGVSSYLAWYQQKPGQAPRLLIYGASTRATGIPARFSGSGSGTEFTLTISSLQSEDFAVYYCQQRSRWPPWTFGQGTKLEIK
In the case of B14, the Kd was found to be 3.96 nM, the koff came out at 0.00128 s⁻¹ and the kon came to 322000 M⁻¹ s⁻¹.

B15: VRDN-03126 (antibody, V domains shown)
VH: EVQLVESGGGVVQPGRSLRLSCAASGFTFDDYTMHWVRQAPGKGLEWVAVIWYDGSSKYYADSVKGRFTISRDNSKNTLYLQMNSLRAEDTAVYYCARELGRRYFDIWGQGTLVTVSS
VL: EIVMTQSPATLSVSPGERATLSCRASQGVSSYLAWYQQKPGQAPRLLIYGASTRATGIPARFSGSGSGTEFTLTISSLQSEDFAVYYCQQRSRWPPWTFGQGTKLEIK
As for B15, the Kd stood at 8.7 nM, the koff stood at 0.00297 s⁻¹ and the kon was 341000 M⁻¹ s⁻¹.

B16: VRDN-03124 (antibody, V domains shown)
VH: EVQLVESGGGVVQPGRSLRLSCAASGFTFDDYTMHWVRQAPGKGLEWVAIIWFDGSSKYYADSVKGRFTISRDNSKNTLYLQMNSLRAEDTAVYYCARELGRRYFDIWGQGTLVTVSS
VL: EIVMTQSPATLSVSPGERATLSCRASQGVSSYLAWYQQKPGQAPRLLIYGASTRATGIPARFSGSGSGTEFTLTISSLQSEDFAVYYCQQRSRWPPWTFGQGTKLEIK
For B16, the Kd came to 1.84 nM, the koff worked out at 0.000157 s⁻¹ and the kon was 85200 M⁻¹ s⁻¹.

B17: VRDN-03116 (antibody, V domains shown)
VH: EVQLVESGGGVVQPGRSLRLSCAASGFTFSDYTMHWVRQAPGKGLEWVAIIWFDGSSKYYPGSVKGRFTISRDNSKNTLYLQMNSLRAEDTAVYYCARELGRRYFDIWGRGTLVTVSS
VL: EIVMTQSPATLSVSPGERATLSCRASQGVSSYLAWYQQKPGQAPRLLIYGASTRATGIPARFSGSGSGTEFTLTISSLQSEDFAVYYCQQRSRWPPWTFGQGTKLEIK
For B17, the Kd amounted to 4.3 nM, the koff turned out to be 0.00091 s⁻¹ and the kon is 212000 M⁻¹ s⁻¹.

B18: VRDN-03091 (antibody, V domains shown)
VH: QVQLVESGGGVVQPGRSLRLSCAASGFTFSSYGMHWVRQAPGKGLEWVAIIWFDGSSTYYADSVRGRFTISRDNSKNTLYLQMNSLRAEDTAVYYCARELGRRYFDLWGRGTLVTVSS
VL: EIVLTQSPATLSLSPGERATLSCGASQSVSSSYLAWYQQKPGQAPRLLIYDASKRATGIPARFSGSGSGTDFTLTISSLEPEDFAVYYCQQRSKWPPWTFGQGTKVEIK
For the molecule B18, the Kd stood at 11 nM, the koff came out at 0.00902 s⁻¹ and the kon is 819000 M⁻¹ s⁻¹.

B19: VRDN-03119 (antibody, V domains shown)
VH: EVQLVESGGGVVQPGRSLRLSCAASGFTFSSYSMHWVRQAPGKGLEWVAIIWFDGSEKYYVDSVKSRFTISRDNSKNTLYLQMNSLRAEDTAVYYCARELGRRYFDIWGQGTLVTVSS
VL: EIVMTQSPATLSVSPGERATLSCRASQGVSSYLAWYQQKPGQAPRLLIYGASTRATGIPARFSGSGSGTEFTLTISSLQSEDFAVYYCQQRSRWPPWTFGQGTKLEIK
Turning to B19, the Kd was determined as 9.78 nM, the koff stood at 0.00153 s⁻¹ and the kon worked out at 157000 M⁻¹ s⁻¹.

As a reminder, the Kd is the equilibrium constant for the complex coming apart. For orientation: koff means the rate constant with which the complex falls apart. The kon is the second-order rate constant of association.
